Test results from US20130190228A1.

Molecular target: hemagglutinin (HA) of A/PuertoRico/8/34 (PR/8, H1N1) influenza virus (influenza A virus A/PuertoRico/8/34 (H1N1)) (UniProt P03452)
Assay: cell-based or functional assay

In the case of EB peptide (entry blocker), the EC50 of hemagglutination inhibition (PR/8) is reported as 2000 nM, the EC50 of hemagglutination inhibition (PR/8, 64 HAU) is reported as 2600 nM and the plaque reduction on MDCK cells (PR/8 pre-treated with peptide) is reported as 92%.
